Data published in the nanobody polyreactivity screen of Harvey et al. (2022).

Assay: yeast display, Sf9 membrane polyspecificity reagent, FACS + sequencing; frameworks hold sequencing errors
Outline: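 A nanobody's polyreactivity label depends on the gate it was sorted from. Yeast display cells were stained with 10% biotinylated, detergent-solubilized Sf9 membrane reagent for 1 hour at 4 °C, enriched on streptavidin microbeads and sorted by FACS. The low and high (top ~1%) gates were set on anti-HA fluorescence for expression and streptavidin fluorescence for reagent binding.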

Row | Sequence | polyreactivity (PSR sort gate)
1 | QVQLVESGGGLVQAGGSLRLSCAASGSTFKGYSMGWYRQAPGKERALVAAISRSGTRTYYADSVKGRFTISRDNAKNTVYLHMTILKPEVTAVYYCNKVTGFIAHDNEKGRDYWGQGTQVTVSS | low polyreactivity
2 | QVQLVESGGGLVQAGGSLRLSCAASGSTFKGYTMGWYRQAPGKEREFVATITFSDGSTYYADCVKGRFTISRDNAKNTVYLQMNSLKPAVTAVYYCNVDSPIGYDYWGQGTQVTVSS | low polyreactivity
3 | QVQLVESGGGLVQAGGSLRLSCAASGSTFKINAMGWYRQAPGKERELVAAIRSRGGGTYYADSVKGRFTISRDNAKNTVYLQMNSLKPEDTAVYYCAATRRYHFDYWGQGTQVTVSS | high polyreactivity
4 | QVQLVESGGGLVQAGGSLRLSCAASGSTFKIYAMGWYRQAPGKERELVARITGRGGSTYYADSVKGRFTISRDNAKNTVYLQMNSLKPEDTAVYYCAARVYTFYYDLHKRYYWGQGTQVNVSS | high polyreactivity
5 | QVQLVESGGGLVQAGGSLRLSCAASGSTFKKYAMGWYRQAPGKERELVAAITWTGGSTYYADSVKGRFTISRDNAKNTVYLQMNSLKPEDTAVYYCAAYKTYAVKYYWGQGTQVTVSS | high polyreactivity
6 | QVQLVESGGGLVQAGGSLRLSCAASGSTFKNNAMGWYRQEPGKEREFVASISKRGGSTYYADSVKGRFTISRDNAKNTVYLQMNSLKPEDTAVDYCAKTYWSYGWSHGDYGEFDYWGQGTQVTVSS | high polyreactivity
7 | QVQLVESGGGLVQAGGSLRLSCAASGSTFKPNAMGWYRQAPGKERELVAGISGRGGSTNYADSVKGRFTISRDNAKNTVYLQMNRLKPEDTAVYYCAKDAYPLWLTRYNYWGQGTQVTVSS | low polyreactivity
8 | QVQLVESGGGLVQAGGSLRLSCAASGSTFKPYAMGWYRQAPGKERELVAAITWSSGSTYYADSVKGRFTISRDNAKNTVYLQMNSLKPEDTAVYYCARDRYSVFEYDYWGQGTQVTVSS | low polyreactivity
9 | QVQLVESGGGLVQAGGSLRLSCAASGSTFKPYPMGWYRQAPGKERELVADITGGGSTNYADSVKGRFTNSRDNAKNTVYLEMNSLKPEDTGVYYCNATYLLKYRYYDSTRYDYWGQGTQVTVSS | low polyreactivity
10 | QVQLVESGGGLVQAGGSLRLSCAASGSTFKQYAMGWYRQAPGKERELVADINVRDGGTYYADSVKGRFTISRDNAKNTVYLQMNSLKPEDTAVYYCAKDYYACYWEMDYWGQGTQVTVSS | low polyreactivity
11 | QVQLVESGGGLVQAGGSLRLSCAASGSTFKQYAMGWYSQAPGKERELVAAISLSGSRTYYADSVKVRFTISRDNAKNTVYLQMKSLIPVDTAVYYCAAELRSSAGWLYDYWGQGTQVTVSS | high polyreactivity
12 | QVQLVESGGGLVQAGGSLRLSCAASGSTFKRNAMGWYRQAPGKERELVAAISWRGTSTYYADSVKGRFTISRDNAKNTVYLQMNSLKPEDTAVYYCAADRGSSVRYGYWGQGTQVTVSS | high polyreactivity
13 | QVQLVESGGGLVQAGGSLRLSCAASGSTFKRNVMGWYRQAPGKERELVAAISRSTTSTYYADSVKGRFTISRDNAKNTVYLQMNSLKPEDTAVYYCATPHRYRVDYWGQGTQVTVSS | high polyreactivity
14 | QVQLVESGGGLVQAGGSLRLSCAASGSTFKRYAMGWYRQAPGKEMELVAAISTRGSTYYADSVKGRFTISRDNAKNTVYLQMNRLKPEETAVYYCNADVGAWAWYTRYDYWGQGTQVTVSS | low polyreactivity
15 | QVQLVESGGGLVQAGGSLRLSCAASGSTFKRYAMGWYRQAPGKERELVADISRGVRTYYADSVKGRFTISRDNAKNTVYLQMNSLKPEDTAVYYCATKYHRNTYEYEYWGQGTQVTVSS | high polyreactivity
16 | QVQLVESGGGLVQAGGSLRLSCAASGSTFKRYAMGWYRQAPGKERELVASISSGGSTNYADSVKGRFTISRDNAKNTVYLQMNSLKPEDTAVYYCAVSYRSFRYYWERYYSWGQGTQVTVSS | high polyreactivity
17 | QVQLVESGGGLVQAGGSLRLSCAASGSTFKRYDMGGYRQAPGKECEFVAGISSRGSRTYYADSVTGRFTISRDNAKNSVYFKMNILKPEDSAVYYCAVSGNHVSPPYGFWGQGTQVNVSS | high polyreactivity
18 | QVQLVESGGGLVQAGGSLRLSCAASGSTFKSYAMGWYRQAPGKERELVAAINWSGGSTYYADSVKGRFTISRDNAKNTVYLQMTSLKPEDTAVYYCNALYAVRSYDSWGQGTQVTVSS | high polyreactivity
19 | QVQLVESGGGLVQAGGSLRLSCAASGSTFKSYTMGWYRQAPGKERELVAAITSSGRTNYADSVKGRFTISRDNAKNTVYLQMNSLKPEDTAVYYCAARWYYYPLLYDYWGQGTQVTVSS | low polyreactivity
20 | QVQLVESGGGLVQAGGSLRLSCAASGSTFKTYAMGWYRQAPGKEREFVAAINWRGTSTYYADSVKGRFTISRDNAKNTVYLQMNSLKPEDTAVYYCAAQRYGYGYQWYDHWGQGTQVTVSS | high polyreactivity
21 | QVQLVESGGGLVQAGGSLRLSCAASGSTFKTYSMGWYRQAPGKERELVAAISGNGGSTYYADSVKGRFTISRDNAKNTVYLQMNILIPEDTAVYYCAAKRRRHFSRGYEYWGQGSQVTVSS | high polyreactivity
22 | QVQLVESGGGLVQAGGSLRLSCAASGSTFKVYAMGWYRQAPGKEMELDAAISRSGGRTYYADSVKGRFTISRDNAKNTVYLQMNSLKPEDTAVYYCNRDYTYSQGHYSGSYDYWGQGTQVTVSS | high polyreactivity

Row | Sequence | polyreactivity (PSR sort gate)
23 | QVQLVESGGGLVQAGGSLRLSCAASGSTFKVYAMGWYRQAPGKERELVAVISGGGRTNYADSVKGRFTISRDNAKNTVYLQMNSLKPEDTAVYYCAALGPYGSARRKYGYWGQGTQVTVSS | high polyreactivity
24 | QVQLVESGGGLVQAGGSLRLSCAASGSTFKVYAMGWYRQAPGKESELVATISKSGSTYADSVKGRFTISRDNAKNTVYLQMNSLKPEDTAVYYCARVKYSGVVYKYDYWGQGTQVTVSS | high polyreactivity
25 | QVQLVESGGGLVQAGGSLRLSCAASGSTFKWYAMGLYRQAPGKERELVAAIDSRGGSTYYADSVKGRFTISRDNAKNTVFLQMISLKPEDTAVYYCNIYPHYSFQSHNYWGQGTQVTVSS | high polyreactivity
26 | QVQLVESGGGLVQAGGSLRLSCAASGSTFKYNAMGWYRQAPGKERELVARISWSGGSTYYADSVKGRFTISRDNAKNSVYLQMNSLKPEDTAVYYCAARSWWRGYSFYYWGQGTQVTVSS | high polyreactivity
27 | QVQLVESGGGLVQAGGSLRLSCAASGSTFKYYAMGWYRQAPGKERELVARISIRGGSTYYADSVKGRFTISRDNAKNTVYLQMNSLKPEDTAVYYCAAVGYFGGYRYYYWGQGTQVTVSS | high polyreactivity
28 | QVQLVESGGGLVQAGGSLRLSCAASGSTFKYYAMGWYRQAPGKERELVATITWSGTSTNYADSVKGRFTISRDNAKHTVYLQMHSLKPEDTAVYYCAARSKRRNYDYWGQGTQVTVSS | high polyreactivity
29 | QVQLVESGGGLVQAGGSLRLSCAASGSTFKYYAMVWYRQAPGKERELVAAISRSGGRTYYADSVKGRFTISRDNAKNTVYLQMNSLKPEDTAVSLCNAVVARVNVRGTPAFDYWGQGTQVTVSS | high polyreactivity
30 | QVQLVESGGGLVQAGGSLRLSCAASGSTFKYYGMGWYRQAPGKERELVAAITSGGSTYDADSVKGRFTISRDNAKTTVYLQRNSLKPEDTAVYYCNTQYYLYYPADYDYWGQGTQVTVSS | low polyreactivity
31 | QVQLVESGGGLVQAGGSLRLSCAASGSTFLDYAMGWYRQAPGQERELVAAITSVGGTYADSVKGRFTISRDKAKNTVYLQKNSLKPEDTAGYYCAADADFWYYVVHRGSTFDYSGQGTQVTVSS | low polyreactivity
32 | QVQLVESGGGLVQAGGSLRLSCAASGSTFLDYTMGWYRHAPGKERELVAVIYYRAGSTYYADSVKGRFTISRDNAKNTVYLQMNSLKPEDTAVYYCNADYYNFWRRRRYLWYESWGQGTQVTVSS | low polyreactivity
33 | QVQLVESGGGLVQAGGSLRLSCAASGSTFLGYTMGWYRQAPGKERELVAAISRRGSSTYYADSVKGRFTISRDNAKNTVYLQMNSLKPEDTAVYYCAAYATSFRDGYWGQGTQVTVSS | high polyreactivity
34 | QVQLVESGGGLVQAGGSLRLSCAASGSTFLHYAMGWYRQAPGKEREFTYYADSVKGRFTISRDNAKNTVYLHMNSLNPEDTAVYYCNAGPYWSPYGDDFGYWGQGTQVTVSS | low polyreactivity
35 | QVQLVESGGGLVQAGGSLRLSCAASGSTFLKNAMGWSRQAPGKERELVAAISYSTTRTYYADSVKGRFTISRDNAKNTVYLQMNSLKPEDTAVYYCNKASYWGSGFDYWGQGTQVTVSS | low polyreactivity
36 | QVQLVESGGGLVQAGGSLRLSCAASGSTFLLNTMGWYRQAPGKERELVAAISSITGDTYYADSVKGRFTISRDNAKNTVYLQMNSLNPEDTAVYYCAAYLSETRPYLYDYWGQGTQVTVSS | low polyreactivity
37 | QVQLVESGGGLVQAGGSLRLSCAASGSTFLLYDMGWYRQAPGKERELVAAITWSGGSTYYADSVKGRFTISRDNAKNTVYLQMNSLKPEDTAVYYCAADSLGDRYYYWGQGTQVTVSS | low polyreactivity
38 | QVQLVESGGGLVQAGGSLRLSCAASGSTFLNYAMGWYRQAPGKERELVAAISGRGGRTYYADSVKGRFTISRDNAKNTVYLLMNSLKPEDTAVYYCAARKWVSYTSYDYWGQGTQVTVSS | high polyreactivity
39 | QVQLVESGGGLVQAGGSLRLSCAASGSTFLPNAMGWYRQAPGKERELVAAISYRGGGTFYADSVKGRFTISRDNAKNTVYLQMNSLKPEDTAVYYCADDWSWFDNFDYWGQGTQVTVSS | low polyreactivity
40 | QVQLVESGGGLVQAGGSLRLSCAASGSTFLRNAMGWYRQAPGKERELVAAISWSAGSTYYADSVKGRFTISRDNAKNTVYLQMNSLKPEDTAVYYCAVDKYVFVSYSFYFEYDYWGQGTQVTVSS | low polyreactivity
41 | QVQLVESGGGLVQAGGSLRLSCAASGSTFLRYAMGWYRQAPGKERELVAAISVSGGSTYYADSVKGRFTISRDNAKNTVYLQMNCLKPEDTAVYYCAAVYKRLQPYGYWGQGTQVTVSS | high polyreactivity
42 | QVQLVESGGGLVQAGGSLRLSCAASGSTFLRYAMGWYRQAPGTERELVAALSYSGGSTYYADSVKGRFTISRDTAKKTVSLQMNSLKPEDTAVYYCNAGVFANDNGGRLDQFTWEYEYWGQGTQVTVSS | low polyreactivity
43 | QVQLVESGGGLVQAGGSLRLSCAASGSTFLRYTMGWYRQAPGKARELVAAITRSGGSTYYADSVKGRFTISRDTAKNTVYLQMNSLKPEDTAVYYCAKRYRVAYGYWGQGTQVTVSS | high polyreactivity
